assay: yeast display, Sf9 membrane polyspecificity reagent, FACS + sequencing; frameworks hold sequencing errors
Outline: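 A synthetic nanobody library was expressed on Saccharomyces cerevisiae BJ5465 by galactose induction for 36–48 hours. The library was stained for 1 hour at 4 °C with 10% biotinylated, detergent-solubilized Sf9 membrane reagent and enriched with streptavidin microbeads before FACS. Low and high (top ~1%) gates were set on anti-HA fluorescence for expression and streptavidin fluorescence for reagent binding, and each polyreactivity label reflects the gate of origin.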

Row | Sequence | polyreactivity (PSR sort gate)
1 | QVQLVESGGGLVQAGGSLRLSCAASGSIFRVYMGWYRQAPGKERALVATIRWSSGSTYYADSVKGRFTISRDNAKNTVYLQMNSLKPEDTAVYYCAVKGPYYDDYDYWGQGTQGTVSS | low polyreactivity
2 | QVQLVESGGGLVQAGGSLRLSCAASGSIFRWYAMGWYRQAPGKERELVAAISKSGGTTYYADSVKGRFTISRDNAKNTVYLQMNSLKPEDTAVYYCAARRYPYGGYGYRYDYWGQGTQVTVSS | high polyreactivity
3 | QVQLVESGGGLVQAGGSLRLSCAASGSIFRWYAMGWYRQAPGKERELVAAITWSASRTYYADSVKGRFTISRDTAKNTVYLQMNSLKPEDTAVYYCAADHDGPYAGYDSWRQGTQVTVSS | low polyreactivity
4 | QVQLVESGGGLVQAGGSLRLSCAASGSIFRYNAMGWYIQAPGKERELVAAISWNGARTYYADSVKGRFTISRDNAKNTVYLQMNSLKPEDTAVYYCNAGTFTRRRGLDYWGQGTQVTVSS | low polyreactivity
5 | QVQLVESGGGLVQAGGSLRLSCAASGSIFRYNAMGWYRPAPGTERELVAAITSGDSTYYADSVKGRFTISRDNAKNTVYLHMNSLKPEDTAVYYCARRSYATYSFRFDYWGQGTQVTVSS | low polyreactivity
6 | QVQLVESGGGLVQAGGSLRLSCAASGSIFRYNAMGWYRQAPGTEREVVAGITSGGDTNYADSVKGRFTISRDNAKNTVYLQMNSLKPEDTAVYYCAKRWYGGRRYDYWGQGTQVTVSS | low polyreactivity
7 | QVQLVESGGGLVQAGGSLRLSCAASGSIFRYNTKGWYRQATGKERELDAAINWSGGNTYYADSVKGRFTISRDNAKNTVYLQMNSLKPEDTAVYYCAARWPSYVSYRYYTKYDYWGQGTQVTVSS | high polyreactivity
8 | QVQLVESGGGLVQAGGSLRLSCAASGSIFRYNTMGWYRQAPGKVRELVATITRRGGSTYYADSVKGRFTISRDNAKNTVYLQMNSVKPEDTAVYYCIADNFGGPYNYWGQGTQVTVSS | low polyreactivity
9 | QVQLVESGGGLVQAGGSLRLSCAASGSIFRYYAKGWSRQAPGKERELVAAISRSGGSTYYADSVKGRFTISRDNAKNTVYLQMKSLKPEDTAVYYCAAEYRVRAQGYVYWGQGTQVTVSS | high polyreactivity
10 | QVQLVESGGGLVQAGGSLRLSCAASGSIFRYYAMGWYIQAPGKEMELVAAITSSGGSTYYADSVKGRFTISRDNAKNTVYLQMNSLKPEDTAVYDCNARHVRYSRRENDYWGQGTQGTVSS | high polyreactivity
11 | QVQLVESGGGLVQAGGSLRLSCAASGSIFRYYAMGWYRPAPGKERELVAAISSRGGRTYYADSVKGRFTISRDNAKNTVYLQMNSLIPEDTAVYYCAARRYRYTTPFRYGYDYWGQGTQVTVSS | high polyreactivity
12 | QVQLVESGGGLVQAGGSLRLSCAASGSIFRYYAMGWYRPAPGKERELVARISATGASTYYADSVKGRFTISRDNAKNTVYLQMNSLKPEDTAVYYCAAGGRSRWGRYSPYDYWGQGTQVTVSS | high polyreactivity
13 | QVQLVESGGGLVQAGGSLRLSCAASGSIFRYYAMGWYRQAHGKERELVAVITSSGTSTYYADSVKGRFTISRDNAKNTVYLQMNSRKPEDTAVDYCAVYPIIYGRMDSWGQGTQVTVSS | low polyreactivity
14 | QVQLVESGGGLVQAGGSLRLSCAASGSIFRYYAMGWYRQAPGKEREFDASITYRGGRTYYADSVKGRFTISRDNAKNTVYLQMNSLKPEDTAVYYCAARTRAGAWTSKYHDYWGQGTQVTVSS | high polyreactivity
15 | QVQLVESGGGLVQAGGSLRLSCAASGSIFRYYAMGWYRQAPGKERELVAAISSNGGSTYYADSVKGRFTISRDNAKNTVYLQMNSLKPEDTAVYYCAALFRRAPGYYWGQGTQVTVSS | high polyreactivity
16 | QVQLVESGGGLVQAGGSLRLSCAASGSIFRYYAMGWYRQAPGKERELVASISSGAGSTYYADSVKGRFTISRDNAKNTVYLQMNSLKPEDTAVYYCAARPGYSAFYYWGQGTQVTVSS | high polyreactivity
17 | QVQLVESGGGLVQAGGSLRLSCAASGSIFRYYAMGWYRQAPGKERELVASITRRGGSTYYADSVKGRFTISRDNAKNTVYLQMTSLKPEDTAVYYCAAHKTYVRDYYWGQGTQVTVSS | high polyreactivity
18 | QVQLVESGGGLVQAGGSLRLSCAASGSIFRYYAMGWYRQAPWKERELVADISSGGSTYYADSVKGRFTISRDNAKNTVNLQMISQKPEDTAVYYCNDDYYAYPWTNDYWGQGTQVTVTS | high polyreactivity
19 | QVQLVESGGGLVQAGGSLRLSCAASGSIFRYYDMGWYRQAPGKERELVAAISDSTGTTYYADSVKGRFSISRDNAKNTVYLQMNSLKPEDTSVDYCTAGYDPRYDYWGQGTQVTVSS | high polyreactivity
20 | QVQLVESGGGLVQAGGSLRLSCAASGSIFSANAMGWYRQAPGKERELVAAINSGGGTYYADSVKGRFTISRDNAKNTVFLQMNSLKPEDTAVYYCATDAVYIKGKYYTHEYWGQGTQVTVSS | high polyreactivity
21 | QVQLVESGGGLVQAGGSLRLSCAASGSIFSANAMGWYRQAPGKERELVAAISDGGAATYYADSVKGRFTISRDNAKHTVYLQMNSLKPEDTAVYYCIADDAFWTVVDGNWRYEYDYWGQGTQVTVSS | low polyreactivity
22 | QVQLVESGGGLVQAGGSLRLSCAASGSIFSANARGWYRQAPGKERELVASITGDGSTNYADSVKGRFTISRDNAKNPGYLQMNSLKPEDTAVYYCAADIGSWYDYWGQGTQVTGSS | low polyreactivity

Row | Sequence | polyreactivity (PSR sort gate)
23 | QVQLVESGGGLVQAGGSLRLSCAASGSIFSAYAMGWSRQAPGKERELVASITTDGGITYYADSVKGRFTISRDNAKNTVYLQMNSLKPEDTAVYYCAVLQYYYPYYYWGQGTQVTVSS | low polyreactivity
24 | QVQLVESGGGLVQAGGSLRLSCAASGSIFSAYAMGWYRQAPGKEREFVASITWSGGSTYYADSVKGRFTISRDNAKNTVYLQMNSLKPEDTAVYYCAAVYVTWYNNYEYWGQGTQVTVSS | high polyreactivity
25 | QVQLVESGGGLVQAGGSLRLSCAASGSIFSAYAMGWYRQAPGKERELVAAISSRGGSTYYADSVKGRFTISRDNAKNTVYLQMNSLKPEDTAVDYCAARVRHSAYDYWGQGTQVTVSS | high polyreactivity
26 | QVQLVESGGGLVQAGGSLRLSCAASGSIFSAYAMGWYRQAPGKERELVAAITKSSVTYYADSVKGRFTISRDNAKNTVYLQMNSLKPEDTAVYYCAAYSPRPSDLYSPIAYYYWGQGTQVTVSS | low polyreactivity
27 | QVQLVESGGGLVQAGGSLRLSCAASGSIFSFNAMGWYRQAPGKERELVAAISWRGASTYYADSVKGRFTISRDNAKNTVYLQMNSLKPEDTAVYYCAAESTFILQYSYIYYDGHYDYWGQGTQVTVSS | low polyreactivity
28 | QVQLVESGGGLVQAGGSLRLSCAASGSIFSFYAMVWYRQAPGKERELVADISLTTDSTYADSVKGRFTISRDNAKNTVYLQMNSLKPEDTAVYYCAADFFGTITWYDYWGQGTQVTVSS | low polyreactivity
29 | QVQLVESGGGLVQAGGSLRLSCAASGSIFSFYAVGWYRQAPGKERELVAALSSGGSTYYADSVKGRFTISGDNAKNTVYLQMNSLIPEDTAVYYCAADPYRYNFRAYGWYREGYYWGQGTQVTVSS | low polyreactivity
30 | QVQLVESGGGLVQAGGSLRLSCAASGSIFSGNAMGWYRQAPGKERELVAAISRSGTSTYYADSVKGRFTISRDNAKNTVYFQMNSLKPEDTAVYYCNARSYYTLRSDFYYWGQGTQVTVSS | high polyreactivity
31 | QVQLVESGGGLVQAGGSLRLSCAASGSIFSGNAMGWYRQAPGKERELVAAISSNGGRTYYADSVKGRFTISRDNAKNTVYLQMNSLKPEDTAVYYCAADSGKRRYGYYYWGQGTQVTVSS | high polyreactivity
32 | QVQLVESGGGLVQAGGSLRLSCAASGSIFSGNAMGWYRQAPGKERELVASINRSGGSTYYADSVKGRFTISRDNAKNTVYLQMNSLKTEDTAVYYCAARRVWLAGYDSWGQGTQVTVSS | low polyreactivity
33 | QVQLVESGGGLVQAGGSLRLSCAASGSIFSGNPMGWYRQAPGKERELVAAIDWSGDSTYYADSVKGRFTISRDNAKNTVYLQMNSLKPEDTAVYYCNTVSFSWGYSAYDYWGQGTQVTVSS | low polyreactivity
34 | QVQLVESGGGLVQAGGSLRLSCAASGSIFSGNTMGWYRQAPGKERELVAAISKSGGSTYYADSVKGRFTISRDNAKNTVYLQINSLKPEDTAVYYCAVRIRSRVANPGYRWGFNYWGQGTQVTVSS | high polyreactivity
35 | QVQLVESGGGLVQAGGSLRLSCAASGSIFSGNVMGWYRQAPGKERELVAAISGRGGSTYYADSVKGRFTISRDNAKNTVYLQMNSLKPEDTAVYYCAAVYLKTYYWGQGTQVTVSS | high polyreactivity
36 | QVQLVESGGGLVQAGGSLRLSCAASGSIFSGYAMGWYRQAPGKESDLVAAISGSGGSTFYADSVKGRFTISRDYAKNTVYLQMNSLKPEDTAVYFCAARRIAPYGRYDYWGQGTQVTVSS | low polyreactivity
37 | QVQLVESGGGLVQAGGSLRLSCAASGSIFSGYTMGWYRQAPGKERELVAAISSDGSTTYADSVKGRFTISRDNAKNTVYLQMNSLNPEDTADYYCAAYPYWEGSYGGYDYWGQGTEVTVSS | low polyreactivity
38 | QVQLVESGGGLVQAGGSLRLSCAASGSIFSINAMGWYRQAPGKERELVAAISASGGSTYYADSVKGRFTISRDNAKNTVYLQMNSLKPEDTAVYYCAAEGSPTGYDYWGQGTQVTVSS | low polyreactivity
39 | QVQLVESGGGLVQAGGSLRLSCAASGSIFSINTMGWYRQAPGKERELVATITWSVGSTNYADSVKGRFTISRDNAKNTVYLQMNSLKPEDTAVYYCNADSSRWPYRLYRFYYWGQGTQVTVSS | low polyreactivity
40 | QVQLVESGGGLVQAGGSLRLSCAASGSIFSINTMGWYRQPPGKERELVAAITRSGSGTYYADSVKGRFTISRDNAKNTVYLQMNSLKPEDTAVYYCAKPAGARLGYWGQGTQVTVSS | low polyreactivity
41 | QVQLVESGGGLVQAGGSLRLSCAASGSIFSIYAMEWYRQAPGKERELVAAITWGGGSTYYADSVKGRFTISRDNAKNTVYLQMNSLKPEDTAVYYCAADSLTWYGTYYYWGQGTQVTVSS | high polyreactivity
42 | QVQLVESGGGLVQAGGSLRLSCAASGSIFSIYAMGWYRQAPGKERELVAAINWIGTSTYYADSVKGRFTISRDNAKNTVYLQMNSLKPEDTAVYYCAAVSRRVSPYLSARDYCGQGTQVTVSS | high polyreactivity
43 | QVQLVESGGGLVQAGGSLRLSCAASGSIFSIYAMGWYRQAPGKERELVAAISSGGSTYADSVKGRFTISRDNAKNTVYLQMNSLKPEDTAVYYCAADRRGYRGYDYWGQGTQVTVSS | low polyreactivity

— the nanobody polyreactivity screen of Harvey et al. (2022)
